Test results: patent publication CN115368458A (BIO THERA SOLUTIONS LTD, dated 2022)

T1: 人源hCD73-His (北京义翘神州, Catalog 10904-H08H) (human, UniProt P21589 27-547)
T1 construct: Bought protein; also called 人CD73; not shown: His tag
T1 sequence (looked up): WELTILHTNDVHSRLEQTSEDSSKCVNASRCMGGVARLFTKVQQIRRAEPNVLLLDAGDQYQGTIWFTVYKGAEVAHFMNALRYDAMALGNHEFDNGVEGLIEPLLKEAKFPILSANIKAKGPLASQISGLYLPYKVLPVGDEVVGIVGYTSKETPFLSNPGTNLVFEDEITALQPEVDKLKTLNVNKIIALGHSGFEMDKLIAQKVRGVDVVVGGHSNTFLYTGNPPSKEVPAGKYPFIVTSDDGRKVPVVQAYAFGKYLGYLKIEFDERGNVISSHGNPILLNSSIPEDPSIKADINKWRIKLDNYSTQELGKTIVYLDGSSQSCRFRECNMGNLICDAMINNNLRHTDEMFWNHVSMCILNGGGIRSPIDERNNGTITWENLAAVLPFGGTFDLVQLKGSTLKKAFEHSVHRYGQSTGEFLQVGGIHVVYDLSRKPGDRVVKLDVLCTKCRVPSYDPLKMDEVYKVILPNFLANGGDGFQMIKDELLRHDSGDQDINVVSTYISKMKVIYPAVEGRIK

T2: 食蟹猴cCD73-His (近岸生物, Catalog CD3-C52H9) (cynomolgus monkey, UniProt A0A2K5V5U7 27-547)
T2 construct: Bought protein; also called 食蟹猴CD73; not shown: His tag
T2 sequence: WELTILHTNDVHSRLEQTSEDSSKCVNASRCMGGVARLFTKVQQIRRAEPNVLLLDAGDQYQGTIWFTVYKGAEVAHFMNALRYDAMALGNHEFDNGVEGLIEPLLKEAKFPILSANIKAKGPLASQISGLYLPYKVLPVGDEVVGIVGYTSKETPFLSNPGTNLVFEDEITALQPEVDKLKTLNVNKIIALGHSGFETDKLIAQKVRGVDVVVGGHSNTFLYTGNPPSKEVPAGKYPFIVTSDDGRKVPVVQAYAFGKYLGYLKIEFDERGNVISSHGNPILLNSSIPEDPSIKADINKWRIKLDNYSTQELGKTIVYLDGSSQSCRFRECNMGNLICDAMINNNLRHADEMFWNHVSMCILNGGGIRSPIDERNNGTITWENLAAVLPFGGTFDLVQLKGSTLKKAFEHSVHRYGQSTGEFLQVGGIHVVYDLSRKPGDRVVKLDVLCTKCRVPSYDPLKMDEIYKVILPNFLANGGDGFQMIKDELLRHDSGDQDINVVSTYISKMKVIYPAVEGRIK

T3: 鼠源mCD73-His (近岸生物, Catalog CD3-M52H9) (mouse, UniProt Q61503 29-551)
T3 construct: Bought protein; also called 小鼠CD73; not shown: His tag
T3 sequence (looked up): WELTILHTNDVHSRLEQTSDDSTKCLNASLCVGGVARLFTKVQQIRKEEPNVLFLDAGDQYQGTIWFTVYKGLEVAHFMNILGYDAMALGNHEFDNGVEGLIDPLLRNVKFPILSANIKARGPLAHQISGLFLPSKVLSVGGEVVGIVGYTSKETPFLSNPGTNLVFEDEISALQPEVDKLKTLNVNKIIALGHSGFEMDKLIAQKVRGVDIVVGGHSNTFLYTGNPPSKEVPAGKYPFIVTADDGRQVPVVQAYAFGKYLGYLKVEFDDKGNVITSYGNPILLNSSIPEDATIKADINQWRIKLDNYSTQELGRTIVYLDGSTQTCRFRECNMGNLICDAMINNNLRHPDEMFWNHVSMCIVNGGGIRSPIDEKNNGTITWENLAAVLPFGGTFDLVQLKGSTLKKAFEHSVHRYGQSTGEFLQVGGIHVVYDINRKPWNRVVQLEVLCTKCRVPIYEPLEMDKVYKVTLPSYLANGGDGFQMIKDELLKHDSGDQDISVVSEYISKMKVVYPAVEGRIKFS

T4: CD73 on the cell membrane of MDA-MB-231 cells (human breast cancer cells) (human, UniProt P21589 27-549)
T4 construct: whole, on cells; also called 细胞膜CD73
T4 sequence (looked up): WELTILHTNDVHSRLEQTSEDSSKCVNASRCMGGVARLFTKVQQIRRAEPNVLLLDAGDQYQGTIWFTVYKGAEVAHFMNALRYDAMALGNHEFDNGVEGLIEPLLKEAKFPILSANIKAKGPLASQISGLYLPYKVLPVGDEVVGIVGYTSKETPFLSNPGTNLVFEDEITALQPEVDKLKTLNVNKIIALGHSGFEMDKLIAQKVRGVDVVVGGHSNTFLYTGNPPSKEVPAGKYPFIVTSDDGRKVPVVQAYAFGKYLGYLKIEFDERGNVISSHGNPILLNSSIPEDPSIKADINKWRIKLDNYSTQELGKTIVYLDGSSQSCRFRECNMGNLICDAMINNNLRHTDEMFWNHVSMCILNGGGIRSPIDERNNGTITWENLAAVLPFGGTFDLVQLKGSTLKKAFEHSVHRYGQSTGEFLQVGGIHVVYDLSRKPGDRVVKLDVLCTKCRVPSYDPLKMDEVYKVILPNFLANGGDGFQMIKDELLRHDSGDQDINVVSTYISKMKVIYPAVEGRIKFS


Tests used:
[1] = target: T1, 人源hCD73-His (北京义翘神州, Catalog 10904-H08H); experiment: SPR, Biacore T200, antibody captured on Protein A chip, hCD73-His as analyte from 32 nM, 1:1 model
[2] = target: T2, 食蟹猴cCD73-His (近岸生物, Catalog CD3-C52H9); experiment: ELISA, cCD73-His coated at 2 μg/ml, antibody from 4 μg/ml in 3-fold steps, anti-h-Kappa-HRP
[3] = target: T3, 鼠源mCD73-His (近岸生物, Catalog CD3-M52H9); experiment: ELISA, mCD73-His coated at 2 μg/ml, anti-h-Kappa-HRP detection; NA表示不结合或基本不结合
[4] = target: T4, CD73 on the cell membrane of MDA-MB-231 …; experiment: flow cytometry (MFI) on MDA-MB-231 cells, antibody from 10 ug/ml in 2-fold steps, anti-humanFc-PE
[5] = target: T1, 人源hCD73-His (北京义翘神州, Catalog 10904-H08H); experiment: ELISA, hCD73-His coated at 2 μg/ml, antibody from 4 μg/ml in 3-fold steps, anti-h-Kappa-HRP
[6] = target: T4, CD73 on the cell membrane of MDA-MB-231 …; experiment: cell-based or functional assay

Row | Binder | Kd [1] [nM] | koff [1] [s⁻¹] | kon [1] [M⁻¹ s⁻¹] | EC50 [2] [µg/mL] | binding result [3] | EC50 [4] [µg/mL] | EC50 [5] [µg/mL] | IC50 of the inhibition of the enzyme activity of cell membrane CD73 (MDA-MB-231 cells, AMP/ATP luminescence assay) [6] [µg/mL]
1 | 抗体P59-L12 (antibody, IgG1, V domains shown) VH: EVQLVESGGGLVQPGGSLRLSCAASGFSFDTYAMSWVRQAPGKGLEWVSAISGDTGVTGYADSVKGRFTISRDNSKNTLYLQMNSLRAEDTAVYYCARDRYAYLVDGWFDYWGQGTLVTVSS VL: DIQMTQSPSSLSASVGDRVTITCRASQGISSYLAWYQQKPGKAPKLLIYAASSLQSGVPSRFSGSGSGTDFTLTISSLQPEDFATYYCQTSDFFPNPVTFGQGTKVEIK | 8.25 | 0.0068 | 827000 | – | – | – | – | –
2 | 抗体P59-L1 (antibody, IgG1, V domains shown) VH: EVQLVESGGGLVQPGGSLRLSCAASGFSFDTYAMSWVRQAPGKGLEWVSAISGDTGVTGYADSVKGRFTISRDNSKNTLYLQMNSLRAEDTAVYYCARDRYAYLVDGWFDYWGQGTLVTVSS VL: DIQMTQSPSSLSASVGDRVTITCRASQGISSYLAWYQQKPGKAPKLLIYAASSLQSGVPSRFSGSGSGTDFTLTISSLQPEDFATYYCQQASYTGDPVTFGQGTKVEIK | 7.67 | 0.00557 | 726000 | – | – | – | – | –
3 | 抗体P59-L6 (antibody, IgG1, V domains shown) VH: EVQLVESGGGLVQPGGSLRLSCAASGFSFDTYAMSWVRQAPGKGLEWVSAISGDTGVTGYADSVKGRFTISRDNSKNTLYLQMNSLRAEDTAVYYCARDRYAYLVDGWFDYWGQGTLVTVSS VL: DIQMTQSPSSLSASVGDRVTITCRASQGISSYLAWYQQKPGKAPKLLIYAASSLQSGVPSRFSGSGSGTDFTLTISSLQPEDFATYYCAQYDFSFYGVTFGQGTKVEIK | 1.85 | 0.000198 | 107000 | – | – | – | – | –
4 | 抗体P59-L17 (antibody, IgG1, V domains shown, also called P59-17) VH: EVQLVESGGGLVQPGGSLRLSCAASGFSFDTYAMSWVRQAPGKGLEWVSAISGDTGVTGYADSVKGRFTISRDNSKNTLYLQMNSLRAEDTAVYYCARDRYAYLVDGWFDYWGQGTLVTVSS VL: DIQMTQSPSSLSASVGDRVTITCRASQGISSYLAWYQQKPGKAPKLLIYAASSLQSGVPSRFSGSGSGTDFTLTISSLQPEDFATYYCQTWSGWPDYLTFGQGTKVEIK | 0.569 | 0.000126 | 221000 | 0.0427 | no binding (tested: 4μg/ml (highest concentration tested)) | 0.438 | 0.0339 | 0.127
